# In the nanobody polyreactivity screen of Harvey et al. (2022):
# Assay: yeast display, Sf9 membrane polyspecificity reagent, FACS + sequencing; frameworks hold sequencing errors
# Summary of the method: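 Using colony PCR, genes from sorted yeast display clones were amplified, then sequenced on MiSeq at 2 × 250 and filtered by CDR length. The clones had been stained with 10% biotinylated, detergent-solubilized Sf9 membrane reagent for 1 hour at 4 °C and sorted by FACS into low and high (top ~1%) gates on anti-HA and streptavidin fluorescence. Polyreactivity labels come from the gate of origin.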
row,Sequence,polyreactivity (PSR sort gate)
1,QVQLVESGGGLVQAGGSLRLSCAASGRIYRRNTMGWYRQAPGKERELVAAITSSGGSTYADSVKGRFTISRDNAKNTVYLQMISLKPEDSAVYYCATYVAYHRGYRTYDHWGQGTHVTVSS,low polyreactivity
2,QVQLVESGGGLVQAGGSLRLSCAASGFTFSYYSMGRYRQAPGKERELVARISFSGTRTYYADSVKGRFTISRDNAKNTVYLQMNSLKPEDTAVYYCARRYRDYGRYGYWGQGTQVTVSS,high polyreactivity
3,QVQLVESGGGLVQAGGSLRLSCAASGFIFSRYAMGWSRQAPGKERELVAAISSRGGSTYYADSVKGRFTISRDNAKNTVYLQMNSLKPEDTAVFYWIAVGSAHYDYWGQGTQVTVSS,high polyreactivity
4,QVQHVESGGGLVQAGRSLRLSCAASGSIVGNNAMGWYRQAPGKERELVAVITDGGNTYYADSVKGRFTISRDNAKNTVYLEMNSLKPEDTAVYYCNADWWGDSDYWGQGTQVTVSS,low polyreactivity
5,QVQLVESGGRLVQAGRSLRLSCAASGGTFQRYVMGWYRQAPGKERELVAAISRSGSTYADSVKGRFTISRDNAKNTGYLQMNSLKPEDTAVYYCNVVRYYRYYLHGYDYWGQGTQVTVSS,high polyreactivity
6,QVQLVESGGGLVQAGGSLRLSCAASGSTFVVNVMGWYRQAPGNEMELVAAITYRSGSTYYADSVKGRFTISRDNEKNTVYLQMNSLNPEDSAVYYCAAGYYSRYYEAFEYYYWGQGTQVTVSS,high polyreactivity
7,QVQLVESGGGLVQAGCSLRLSCAASGFTFYYNAMGWYRQAPGKERDLVAAISISGASTYYADSVKGRFTISRDNAKNTVYLQMNSLKPEDTAVFYCAKRTKGYTYHHEYGYWGQGTQVTVSS,low polyreactivity
8,QVQLVESGGGLVQAGGSLRLSCAASGRIITEYVTGCYTQAPGKERELDAAAITRGGSTNYADSVKGRFTLSRDNAKNTVYLQKNSLIPEDTAVYHCNKDDWPVSRQLYTGKHDSWGQGTQVTVSS,low polyreactivity
9,QVQLVESVGRLVQAGGSLRLSCGASGRIFKWYAMGWFRQARGNERELVAAITSRGSTYYADSVKGRFTISRDNAKNTVYLQMNSLKPEDTAVYYCNRYVVHRRDDYWGQGTQVTVSS,high polyreactivity
10,QVQLVESGGGLVQAGGSLRLSCAASGSTFHLYAMGWYRQAPGKETEFVPAIRGRGGNTYADSVKGRFTISRDNAKNTVYLQMNSLKPEDTAVYYCAAPLLRDLRSPYSYNYWGQGTQVTVSS,low polyreactivity
11,QVQLVESGGGLVQAGGSLRLSCAASGITFPYYAMGWYRQAPGKERELVASINRSGGTNYADSVKGRFTISRDNAKNTVYLPMNSLKPVDTAVYYCAAPGRYGEYDYWGQGTQVNVSS,low polyreactivity
12,QVQLVESGGGLVQAAGSLRLSSAASGSIFDANANGWYRQPPGKERELVAAITSGGSTYYADSVKGRFTISRVNAKNTVYLQMNSLKPEDTAVYYCAAQYYDYKTTYDYWGKGTQVTVSS,high polyreactivity
13,QVQLVESGGGLVQAGGSLRLSCAASGLIFSRNAMGWNRPAPGKERELVAAISTGGSTYYADSVKGRFTISRDNAKNTVYLQMNRLKPVDTAVYYCAAAPGYIYEYWGQGTQVTVSS,low polyreactivity
14,QVQLVESGGCLVQAGGSLRLSCAASGRIFDRNAMGWYRQAPGKERELVARIDPGDDTNYADSVKGRFTISRDNAKNTVYLQMNSLKPEDTAVYYCATDPDYVLYRTAYYEYDYWGQGTQVTVSS,low polyreactivity
15,QVQLVESGGGIVQAGGSLRLSCAASGRTFRINGMGWYRQAPGKERELIAAISDGGSTNYADSVKGRFTISRDNAKNTVYLQMNSLKPEDTAVYYCAVDPYYFFYDEWLGDPNFDYWGQGTQVTVSS,low polyreactivity
16,QVQLVESGGGLVQAGGSLRLSCAASGSIFEGYVMGWYRQAPGKERELVATISFSGGSTYYADSVKGRFTISRDNAKNTVYLQMNSLKPEDTAVYYCATSRYFNTGRGYWGQGTQVTVSS,low polyreactivity
17,QVQIVESGGGLVQAGGSLRLSCAASGGIFEINVLGWYRQAPGKERELVAAISSRGGSTYYADSVKGRFTISRDNAKNTVYLQMNSLKPEDTAVYYCARRYRPKYGYWGQGTQVTVSS,high polyreactivity
18,QVQLVESGGGVVQAGGSLRLSCAASGSIFAGNAMGGSRQAPGKERELVAAITFSAGRTSYADSVKGRFTISRDNAKNTVYFQMNSLKPEDTAVYYCNALLTVRHVKSDYDYWGQGTQVTVSS,low polyreactivity
19,QVQLVESGGGLVQAGGSLRLSCAASGSTFFRYAMGLYRQAPGKEREFVAAITWSGTGTYYADSVKGRFTISRDNAKNTVYLQMNSLKPEDTAVYYCAARRSSNVRRDYWGQGTQVTVSS,high polyreactivity
20,QVQLVESGGGLVQAGGSLRLSCAASGIIFLANAMGWYRQAPGKERELVAAISLDGGRTYYADSVKGRFTISRDNAKNTVFLQMNSLKPEDTAVYYCAADYGYVILYEYWGQGTQVTVSS,low polyreactivity
21,QVQLVESGGGLVQAGGSLRLSCAASGSTFPRYAMGWYRQAPGKERELVAAISRSGTSTYYADSVKGRFTISRDNAKNTVYLQMNSLKPEDTAVYYCAAEYHPRVLYPNWYDYWGQGTQVTVSS,low polyreactivity
22,QVQLQESGGGLVQACGSLRLSCAASGYIFSHQYMGWYRQAPGKERELVASISPGATTNYADSVKGRFTISRDNAKNTVYLQMNSLKPEDTAVYYCARRYRPKYGYWGQGTQVTVSS,high polyreactivity
